The values that follow come from patent publication US5354676A, “Recombinant modified thermostable NAD-dependent dehydrogenases and process for their production” (The University of Bristol, priority 1989, dated 1994).

What all share (assay): purified protein, by the assay type
Substrate in series [1]: CC(=O)C(=O)O
In kind it is biochemical, Bacillus stearothermophilus. The following applies: other: WT, No FBP, pH 6.

Substrate in series [2]: NC(=O)C1=CN([C@@H]2O[C@H](COP(=O)(O)OP(=O)(O)OC[C@H]3O[C@@H](n4cnc5c(N)ncnc54)[C@H](O)[C@@H]3O)[C@@H](O)[C@H]2O)C=CC1
In kind it is biochemical, Bacillus stearothermophilus. The following applies: other: WT; in the presence of 0.5 mM pyruvate; pH 6.0.

Substrate in series [3]: CC(=O)C(=O)O
In kind it is biochemical. The following applies: other: MVS, No FBP, pH 6.

Substrate in series [4]: NC(=O)C1=CN([C@@H]2O[C@H](COP(=O)(O)OP(=O)(O)OC[C@H]3O[C@@H](n4cnc5c(N)ncnc54)[C@H](O)[C@@H]3O)[C@@H](O)[C@H]2O)C=CC1
In kind it is biochemical. The following applies: in the presence of 0.5 mM pyruvate, pH 6.0.

Substrate in series [5]: NC(=O)C1=CN([C@@H]2O[C@H](COP(=O)(O)OP(=O)(O)OC[C@H]3O[C@@H](n4cnc5c(N)ncnc54)[C@H](O)[C@@H]3O)[C@@H](O)[C@H]2O)C=CC1
Particulars: other: GG; in the presence of 0.5 mM pyruvate; pH 6.0.

B1: Bacillus stearothermophilus NAD-dependent L-lactate dehydrogenase, wild type (WT) (Geobacillus stearothermophilus) (protein)
chain: MKNNGGARVVVIGAGFVGASYVFALMNQGIADEIVLIDANESKAIGDAMDFNHGKVFAPKPVDIWHGDYDDCRDADLVVICAGANQKPGETRLDLVDKNIAIFRSIVESVMASGFQGLFLVATNPVDILTYATWKFSGLPHERVIGSGTILDTARFRFLLGEYFSVAPQNVHAYIIGEHGDTELPVWSQAYIGVMPIRKLVESKGEEAQKDLERIFVNVRDAAYQIIEKKGATYYGIAMGLARVTRAILHNENAILTVSAYLDGLYGERDVYIGVPAVINRNGIREVIEIELNDDEKNRFHHSAATLKSVLARAFTR
notes: made in house; host or cells: E. coli
Take B1: in series [1], the Km is 3000 µM and the kcat/Km was determined as 83000 M⁻¹ s⁻¹. Further, the Km in series [2] stood at 18 µM.

B2: Bacillus stearothermophilus L-lactate dehydrogenase variant MVS (102-5 QKP→MVS) (Geobacillus stearothermophilus; K87V/P88S/Q86M) (protein)
chain: MKNNGGARVVVIGAGFVGASYVFALMNQGIADEIVLIDANESKAIGDAMDFNHGKVFAPKPVDIWHGDYDDCRDADLVVICAGANMVSGETRLDLVDKNIAIFRSIVESVMASGFQGLFLVATNPVDILTYATWKFSGLPHERVIGSGTILDTARFRFLLGEYFSVAPQNVHAYIIGEHGDTELPVWSQAYIGVMPIRKLVESKGEEAQKDLERIFVNVRDAAYQIIEKKGATYYGIAMGLARVTRAILHNENAILTVSAYLDGLYGERDVYIGVPAVINRNGIREVIEIELNDDEKNRFHHSAATLKSVLARAFTR
notes: made in house; host or cells: E. coli TG2, vector pKK223-3
In the case of B2, in series [3], the Km is 15000 µM, the catalytic constant (kcat) is 61 s⁻¹ and the kcat/Km is 4100 M⁻¹ s⁻¹. The Km in series [4] (other: MVS) was found to be 14.5 µM.

B3: Bacillus stearothermophilus L-lactate dehydrogenase variant MVS/GG (102-5 QKP→MVS and 235-6 AA→GG) (Geobacillus stearothermophilus; A222G/A223G/K87V/P88S/Q86M) (protein)
chain: MKNNGGARVVVIGAGFVGASYVFALMNQGIADEIVLIDANESKAIGDAMDFNHGKVFAPKPVDIWHGDYDDCRDADLVVICAGANMVSGETRLDLVDKNIAIFRSIVESVMASGFQGLFLVATNPVDILTYATWKFSGLPHERVIGSGTILDTARFRFLLGEYFSVAPQNVHAYIIGEHGDTELPVWSQAYIGVMPIRKLVESKGEEAQKDLERIFVNVRDGGYQIIEKKGATYYGIAMGLARVTRAILHNENAILTVSAYLDGLYGERDVYIGVPAVINRNGIREVIEIELNDDEKNRFHHSAATLKSVLARAFTR
notes: as for B2
For the protein B3, the Michaelis-Menten constant (Km) in series [4] (other: MVS/GG) was 14.5 µM.

B4: Bacillus stearothermophilus L-lactate dehydrogenase variant GG (235-6 AA→GG) (Geobacillus stearothermophilus; A222G/A223G) (protein)
chain: MKNNGGARVVVIGAGFVGASYVFALMNQGIADEIVLIDANESKAIGDAMDFNHGKVFAPKPVDIWHGDYDDCRDADLVVICAGANQKPGETRLDLVDKNIAIFRSIVESVMASGFQGLFLVATNPVDILTYATWKFSGLPHERVIGSGTILDTARFRFLLGEYFSVAPQNVHAYIIGEHGDTELPVWSQAYIGVMPIRKLVESKGEEAQKDLERIFVNVRDGGYQIIEKKGATYYGIAMGLARVTRAILHNENAILTVSAYLDGLYGERDVYIGVPAVINRNGIREVIEIELNDDEKNRFHHSAATLKSVLARAFTR
Take B4: in series [5], the Km is 18 µM.

The Km is the substrate concentration at which the rate is half of its maximum. As usually defined, the kcat/Km is the second-order rate constant that governs catalysis at low substrate concentration. The kcat is the number of substrate molecules converted per active site and unit of time at saturation.
